Data taken from patent US20240010750A1 (Bayer, published 2024).
Positions count from the first letter of the chain named. Where two headings read alike, the source gives them in different places. Blank lines part the entries; values can stand above or below the binder they belong to.

Tests used:
human alpha2-Antiplasmin [1] = target: T1, human alpha2-Antiplasmin (human, UniProt P08697 40-491); test: cell-based or functional assay
T1 sequence: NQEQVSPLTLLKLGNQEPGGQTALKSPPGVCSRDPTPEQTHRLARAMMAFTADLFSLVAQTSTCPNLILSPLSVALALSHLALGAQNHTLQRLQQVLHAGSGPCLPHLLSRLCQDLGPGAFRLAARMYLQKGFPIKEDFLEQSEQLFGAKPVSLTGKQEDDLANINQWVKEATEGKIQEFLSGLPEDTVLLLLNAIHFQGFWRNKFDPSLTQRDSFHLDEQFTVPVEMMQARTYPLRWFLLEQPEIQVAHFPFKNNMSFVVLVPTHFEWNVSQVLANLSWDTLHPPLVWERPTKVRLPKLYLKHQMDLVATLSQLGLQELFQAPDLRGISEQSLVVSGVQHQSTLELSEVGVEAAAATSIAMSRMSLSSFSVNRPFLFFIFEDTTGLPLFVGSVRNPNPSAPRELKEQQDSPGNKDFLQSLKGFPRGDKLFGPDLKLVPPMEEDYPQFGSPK

human alpha2-Antiplasmin [2] = target: T1, human alpha2-Antiplasmin; test: ELISA, coated antigen, 2nd exp.
Procedure: (§1) A standard ELISA format was used for analyzing the binding affinity of Fabs of this invention to human and rabbit alpha-2-Antiplasmin, respectively. Antigens were coated to black 384 well Maxisorp microtiter plates (Nunc; catalogue number 460518), diluted to a concentration of 1 μg/ml in 1× Coating Buffer (Candor Bioscience; catalogue number 121125). Plates were incubated overnight at 4° C. After overnight incubation, plates were washed 2× with 50 μl/well using PBS+0.05% Tween 20. Following this, 50 μl/well of blocking buffer (Smart Block; Candor Bioscience; catalogue number 113500) was added and the plates were incubated for 1 hour at room temperature. Afterwards, plates were washed for 3× using […] PBS+0.05% Tween 20 buffer. Fabs of this invention were added at different concentrations in a final volume of 30 μl/well. Plates were incubated for 1 hour at room temperature. Following this incubation step, plates were washed for 3× using 50 μl/well of a PBS+0.05% Tween 20 buffer. For the detection of bound Fabs and full-length antibodies, the anti-Human Lambda Light Chains (Bound and Free)—Peroxidase antibody (Sigma; catalogue number A5175) was diluted by the factor of 1:10.000 in 10% Blocking Buffer. 30 μl/well of this diluted detection antibody was added and plates are incubated for 1 hour at room temperature. Following this incubation step, plates were washed for 3× using 50 μl/well of a PBS+0.05% Tween 20 buffer. As substrate, a mixture of 30 μl/well of 1:1000 diluted Amplex red (Invitrogen; catalogue number 12222; stock solution 10 mM in DMSO) and 1:10.000 of Hydrogen peroxide (Merck; catalogue number 107209; 30% stock solution) was added and the plates incubated for minutes in the dark.
(§2) For measurement, the Infinite f500 reader (Tecan) was used. Measurement mode: Fluorescence; Top reading; Ex 535 nm; Em 590 nm.
(§3) According to the methods described in Example 3 and Example 4, antibodies TPP-14323, TPP-14318, TPP-14314, TPP-14313, TPP-14308, TPP-14305, TPP-14303, TPP-14298, and TPP-14293 were tested for their ability to bind to and to block the activity of human alpha2-Antiplasmin in a dose-dependent manner. For each antibody, one dose response curve from two to three independent experiments performed in quadruplicate is shown as example in FIG. 7.1 to FIG. 7.18. (see Table 3.3)

human alpha2-Antiplasmin [3] = target: T1, human alpha2-Antiplasmin; test: cell-based or functional assay; remark: listed apart in the source
human Plasmin = human Plasmin (human, UniProt P00747 97-580; P00747 581-810, limits assumed); test: cell-based or functional assay
Sequence of human Plasmin (P00747 97-580 limits assumed, chain 1 of 2): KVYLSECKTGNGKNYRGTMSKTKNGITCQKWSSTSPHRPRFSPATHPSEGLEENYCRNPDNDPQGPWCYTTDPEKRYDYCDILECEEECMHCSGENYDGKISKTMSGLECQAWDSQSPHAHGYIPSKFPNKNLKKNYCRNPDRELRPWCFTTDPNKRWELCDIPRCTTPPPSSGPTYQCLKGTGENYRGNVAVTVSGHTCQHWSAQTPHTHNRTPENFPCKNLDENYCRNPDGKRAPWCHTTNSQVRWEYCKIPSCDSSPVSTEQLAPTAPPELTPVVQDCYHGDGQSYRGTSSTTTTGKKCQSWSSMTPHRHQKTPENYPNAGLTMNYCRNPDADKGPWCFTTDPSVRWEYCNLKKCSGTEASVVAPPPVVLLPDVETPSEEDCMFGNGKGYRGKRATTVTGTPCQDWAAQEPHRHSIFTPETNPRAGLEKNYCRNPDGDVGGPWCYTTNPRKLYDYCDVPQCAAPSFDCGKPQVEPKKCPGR
Sequence of human Plasmin (P00747 581-810 limits assumed, chain 2 of 2): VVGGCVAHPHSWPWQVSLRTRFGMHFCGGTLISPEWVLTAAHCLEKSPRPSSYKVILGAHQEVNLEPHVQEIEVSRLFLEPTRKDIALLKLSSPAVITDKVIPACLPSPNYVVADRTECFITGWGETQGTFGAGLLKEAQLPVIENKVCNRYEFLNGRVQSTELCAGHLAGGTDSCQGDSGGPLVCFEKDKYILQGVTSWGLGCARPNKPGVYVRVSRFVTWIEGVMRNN

human alpha2-Antiplasmin [4] = target: T1, human alpha2-Antiplasmin; test: ELISA, coated antigen, 1st exp.
Procedure: as §1, §2, §3

human alpha2-Antiplasmin [5] = target: T1, human alpha2-Antiplasmin; test: ELISA, coated antigen, 3rd exp.
Procedure: as §1, §2, §3

human alpha2-Antiplasmin [6] = target: T1, human alpha2-Antiplasmin; test: ELISA (Example 3), human alpha2-Antiplasmin coated, RFU
Procedure: as §1, with “As substrate, a mixture of 30 μl/well of 1:1000 diluted Amplex red (Invitrogen; catalogue number 12222; stock solution 10 mM in DMSO) and 1:10.000 of Hydrogen peroxide (Merck; catalogue number 107209; 30% stock solution) was added and the plates incubated for minutes in the dark.” left out
as §2
According to the method described in Example 3, these 12 antibodies were tested for ability to bind human and rabbit alpha2-Antiplasmin in a dose-dependent manner. Data generated were analyzed using the GraphPadPrism software. The binding activities of the antibodies were calculated as EC50 values. […]

human alpha2-Antiplasmin [7] = target: T1, human alpha2-Antiplasmin; test: cell-based or functional assay; remark: listed apart in the source
human alpha2-Antiplasmin [8] = target: T1, human alpha2-Antiplasmin; test: cell-based or functional assay; remark: listed apart in the source
human alpha2-Antiplasmin [9] = target: T1, human alpha2-Antiplasmin; test: ELISA, coated antigen, quantified unpurified antibody, 2nd exp.
human alpha2-Antiplasmin [10] = target: T1, human alpha2-Antiplasmin; test: cell-based or functional assay; remark: listed apart in the source
human alpha2-Antiplasmin [11] = target: T1, human alpha2-Antiplasmin; test: cell-based or functional assay; remark: listed apart in the source
human alpha2-Antiplasmin [12] = target: T1, human alpha2-Antiplasmin; test: SPR Biacore T200, antibody captured on protein G chip, A2AP as analyte, 25 C
Procedure: (§4) Binding assays were performed on a Biacore T200 instrument at 25° C. with a protein G sensor chip and assay buffer HBS-EP+. Antibodies were captured to ˜150 RU and analytes were used at concentrations between 1.56 and 200 nM for full kinetics. As interaction partner, alpha2-Antiplasmin from human, cynomolgus and rabbit was used. Regeneration was performed with glycine-HCl pH 1.5. Kinetic parameters were derived by fitting experimental sensorgrams to a 1:1 Langmuir binding model.

[13] = target: T2, rabbit alpha2-Antiplasmin (rabbit (Oryctolagus cuniculus)); test: as above
T2 construct: Made in house in HEK293 cells, purified by Ni-IMAC and SEC (a His tag is implied but not described); also called rabbit A2AP; Oryctolagus cuniculus A2AP
T2 chain: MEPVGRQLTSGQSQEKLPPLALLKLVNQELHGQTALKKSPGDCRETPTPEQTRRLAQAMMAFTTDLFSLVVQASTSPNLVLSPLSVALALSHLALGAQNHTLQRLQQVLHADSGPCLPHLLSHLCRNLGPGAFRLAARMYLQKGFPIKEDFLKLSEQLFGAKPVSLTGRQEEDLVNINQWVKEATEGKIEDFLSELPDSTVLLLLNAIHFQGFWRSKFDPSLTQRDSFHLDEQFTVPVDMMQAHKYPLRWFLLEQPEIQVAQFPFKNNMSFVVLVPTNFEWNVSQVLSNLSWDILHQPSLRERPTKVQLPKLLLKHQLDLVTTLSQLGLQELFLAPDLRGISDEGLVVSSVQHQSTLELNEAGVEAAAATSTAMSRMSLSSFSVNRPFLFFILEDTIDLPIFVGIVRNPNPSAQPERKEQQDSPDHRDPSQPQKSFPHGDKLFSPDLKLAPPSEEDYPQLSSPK
Procedure: as §4

[14] = target: T3, cynomolgus alpha2-Antiplasmin (cynomolgus (Macaca fascicularis), UniProt P08697 28-491 (human entry)); test: as above
T3 construct: Made in house in the same way as the rabbit protein; also called cynomolgus A2AP; Macaca fascicularis A2AP
T3 chain: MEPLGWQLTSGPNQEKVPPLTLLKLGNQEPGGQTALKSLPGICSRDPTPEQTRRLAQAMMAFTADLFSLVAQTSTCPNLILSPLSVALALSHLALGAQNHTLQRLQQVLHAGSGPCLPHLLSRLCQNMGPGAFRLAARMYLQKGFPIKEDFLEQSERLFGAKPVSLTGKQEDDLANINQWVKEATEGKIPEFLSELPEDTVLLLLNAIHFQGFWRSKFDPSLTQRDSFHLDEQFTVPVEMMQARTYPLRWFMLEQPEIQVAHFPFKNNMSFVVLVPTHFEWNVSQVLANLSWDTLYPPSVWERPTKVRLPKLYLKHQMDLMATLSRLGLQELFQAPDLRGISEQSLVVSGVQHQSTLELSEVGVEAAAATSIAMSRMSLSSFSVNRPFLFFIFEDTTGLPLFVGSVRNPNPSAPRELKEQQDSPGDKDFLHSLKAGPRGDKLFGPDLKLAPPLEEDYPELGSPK
Procedure: as §4

human alpha2-Antiplasmin [15] = target: T1, human alpha2-Antiplasmin; test: ELISA, coated antigen, quantified unpurified antibody, 1st exp.

EC50 (read off the curve); function blocking assay (Example 4), RFU of plasmin substrate cleavage (human alpha2-Antiplasmin [1]): ~60 nM
EC50 (human alpha2-Antiplasmin [2]): 16 nM
function blocking activity [IC50 M], 1st exp. (human alpha2-Antiplasmin [3]): 64 nM
function blocking activity [IC50 M], 2nd exp. (human alpha2-Antiplasmin [3]): 69 nM
function blocking activity [IC50 M], 3rd exp. (human alpha2-Antiplasmin [3]): 66 nM
IC50 [M], inhibition of plasmin proteolytic activity (human Plasmin): > 2e-06 M
EC50 (human alpha2-Antiplasmin [4]): 15 nM
EC50 (human alpha2-Antiplasmin [5]): 16 nM
B1: TPP-14305 hIgG1 (antibody, V domains shown)
VH: EVQLLESGGGLVQPGGSLRLSCAASGFTFDDYAMSWVRQAPGKGLEWVSAIGTGGGTYYADSVKGRFTISRDNSKNTLYLQMNSLRAEDTAVYYCAREGYDSSGYYHLDYWGQGTLVTVSS
VL: QSVLTQPPSASGTPGQRVTISCTGSSSNIGATYDVHWYQQLPGTAPKLLIYSNNQRPSGVPDRFSGSKSGTSASLAISGLRSEDEADYYCWAWDDSLSGWVFGGGTKLTVLG

EC50 (read off the curve) (human alpha2-Antiplasmin [6]): ~3 nM
EC50 (human alpha2-Antiplasmin [2]): 35 nM
function blocking activity [IC50 M], 1st exp. (human alpha2-Antiplasmin [3]): 12 nM
function blocking activity [IC50 M], 2nd exp. (human alpha2-Antiplasmin [3]): 20 nM
function blocking activity [IC50 M], 3rd exp. (human alpha2-Antiplasmin [3]): 13 nM
EC50 (read off the curve); function blocking assay (Example 4), RFU of plasmin substrate cleavage (human alpha2-Antiplasmin [7]): ~10 nM
IC50 [M], inhibition of plasmin proteolytic activity (human Plasmin): > 5e-06 M
EC50 (human alpha2-Antiplasmin [4]): 3.3 nM
EC50 (human alpha2-Antiplasmin [5]): 34 nM
B2: TPP-14313 hIgG1 (antibody, V domains shown)
VH: B1 VH with G99Y, D109V
VL: QSVLTQPPSASGTPGQRVTISCTGSSSNIGATYDVHWYQQLPGTAPKLLIYSNNQRPSGVPDRFSGSKSGTSASLAISGLRSEDEADYYCAAWDWSLSGWVFGGGTKLTVL
notes: Human IgG1 lambda

EC50 (read off the curve); function blocking assay (Example 4), RFU of plasmin substrate cleavage (human alpha2-Antiplasmin [8]): ~0.5 nM
EC50 (human alpha2-Antiplasmin [9]): 0.23 nM
IC50, A2AP function blocking assay (Example 10) (human alpha2-Antiplasmin [10]): 0.64 nM
function blocking activity [IC50 M], 1st exp. (human alpha2-Antiplasmin [11]): 0.56 nM
function blocking activity [IC50 M], 2nd exp. (human alpha2-Antiplasmin [11]): 0.69 nM
IC50 [M], inhibition of plasmin proteolytic activity (human Plasmin): > 1e-05 M
Kd (human alpha2-Antiplasmin [12]): 11 nM
Kd [13]: 18 nM
Kd [14]: 7.6 nM
EC50 (human alpha2-Antiplasmin [15]): 0.19 nM
B3: TPP-17041 hIgG1 (antibody, V domains shown)
VH: B1 VH with D30S
VL: B1 VL with W91A, D95W
notes: Germline variant of TPP-14308
